Measurements published in patent US20240270821A1, “GIP/GLP1/GCG TRI-RECEPTOR AGONISTS AND USES THEREOF” (priority 2023, published 2024).

T1: human GIP receptor (human) (UniProt P48546)
T1 sequence (looked up): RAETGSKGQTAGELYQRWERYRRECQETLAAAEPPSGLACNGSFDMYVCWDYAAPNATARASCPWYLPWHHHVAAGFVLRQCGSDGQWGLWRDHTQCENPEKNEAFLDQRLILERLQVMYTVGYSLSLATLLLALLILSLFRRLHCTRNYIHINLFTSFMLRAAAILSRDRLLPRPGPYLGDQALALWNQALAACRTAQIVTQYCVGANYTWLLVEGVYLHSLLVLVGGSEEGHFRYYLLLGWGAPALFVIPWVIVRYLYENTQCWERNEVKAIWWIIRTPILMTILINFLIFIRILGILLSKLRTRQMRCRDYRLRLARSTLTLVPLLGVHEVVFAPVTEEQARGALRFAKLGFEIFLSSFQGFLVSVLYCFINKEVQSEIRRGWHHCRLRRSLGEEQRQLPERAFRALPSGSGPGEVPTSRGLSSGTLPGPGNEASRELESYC

B1: Example 1053 (peptide)
chain: YXQGTFTSDFSXXLDXKAQXAFIEXLLAGGPSSGAPPPEGSEE
modifications: non-natural residues, (γGlu)2-C18 diacid lysine acylation, C-terminal amide; synthetic construct; SITE 2: note = 2-Aminoisobutyric Acid; SITE 12: note = L-ornithine; SITE 13: note = alpha-methyl-leucine; SITE 16: note = L-ornithine; SITE 17: note = Lysine is chemically modified through conjugation of the epsilon-amino group of the Lysine side chain with (gamma-Glu)2-CO-(CH2)
B2: Example 1056 (peptide)
chain: YXQGTFTSDXSQXLDXKAQXAFIEYLLAGGPSSGAPPPSGSEE
modifications: non-natural residues; lipidated Lys; C-terminal amide; synthetic construct; SITE 2: note = 2-Aminoisobutyric Acid; SITE 10: note = 3-(4-Pyridyl)-L-alanine; SITE 13: note = alpha-methyl-leucine; SITE 16: note = L-ornithine; SITE 17: note = Lysine is chemically modified through conjugation of the epsilon-amino group of the Lysine side chain with (gamma-Gl)
B3: Example 1060 (peptide)
chain: YXQGTFTSDXSXXLDKKAQXAFIEYLIAGGPSSGAPPPSGSEE
modifications: Aib, 4Pal, Orn, αMeL, Me4Pal; acylated Lys; C-terminal amide; synthetic construct; SITE 2: note = 2-Aminoisobutyric Acid; SITE 10: note = 3-(4-Pyridyl)-L-alanine; SITE 12: note = L-ornithine; SITE 13: note = alpha-methyl-leucine; SITE 17: note = Lysine is chemically modified through conjugation of the epsilon-amino group of the Lysine side chain with (Glu)-(ga)
B4: Example 1065 (peptide)
chain: YXQGTFTSDXSXXLDXKAQXAFIEXLLEGGPSSGAPPPSGSEE
modifications: Aib, 4Pal, Orn, αMeL, αMeY; lipidated Lys; C-terminal amide; synthetic construct; SITE 2: note = 2-Aminoisobutyric Acid; SITE 10: note = 3-(4-Pyridyl)-L-alanine; SITE 12: note = L-ornithine; SITE 13: note = alpha-methyl-leucine; SITE 16: note = L-ornithine; SITE 17: note = Lysine is chemically modified through conjugation of the epsilon-amino group of the Lys
B5: Example 1064 (peptide)
chain: YXQGTFTSDXSXXLDXKAQXAFIEXLLEGGPSSGAPPPSGSEE
modifications: Aib, 4Pal, Orn, αMeL, αMeY; lysine acylated C18 diacid; amide; synthetic construct; SITE 2: note = 2-Aminoisobutyric Acid; SITE 10: note = 3-(4-Pyridyl)-L-alanine; SITE 12: note = L-ornithine; SITE 13: note = alpha-methyl-leucine; SITE 16: note = L-ornithine; SITE 17: note = Lysine is chemically modified through conjugation of the epsilon-amino group of the Lys
B6: Example 1067 (peptide)
chain: YXQGTFTSDXSXXLDXKAQXAFIEXLLEGGPSSGAPPPSGSEE
modifications: non-natural residues; lysine acylated with C18 diacid; C-terminal amide; synthetic construct; SITE 2: note = 2-Aminoisobutyric Acid; SITE 10: note = 3-(4-Pyridyl)-L-alanine; SITE 12: note = L-ornithine; SITE 13: note = alpha-methyl-leucine; SITE 16: note = L-ornithine; SITE 17: note = Lysine is chemically modified through conjugation of the epsilon-amino group of the Lys
B7: Example 1059 (peptide)
chain: YXQGTFTSDXSXXLDXKAQXAFIEYLIAGGPSSGAPPPSGSEE
modifications: acylated Lys, C-terminal amide, non-natural residues; synthetic construct; SITE 2: note = 2-Aminoisobutyric Acid; SITE 10: note = 3-(4-Pyridyl)-L-alanine; SITE 12: note = L-ornithine; SITE 13: note = alpha-methyl-leucine; SITE 16: note = L-ornithine; SITE 17: note = Lysine is chemically modified through conjugation of the epsilon-amino group of the Lys
B8: Example 1057 (peptide)
chain: YXQGTFTSDXSQXLDXKAQXAFIEYLLAGGPSSGAPPPSGSEE
modifications: non-natural residues, lipidated Lys, C-terminal amide; synthetic construct; SITE 2: note = 2-Aminoisobutyric Acid; SITE 10: note = 3-(4-Pyridyl)-L-alanine; SITE 13: note = alpha-methyl-leucine; SITE 16: note = L-ornithine; SITE 17: note = Lysine is chemically modified through conjugation of the epsilon-amino group of the Lysine side chain with (Glu)-(ga)
B9: Example 1070 (peptide)
chain: YXQGTFTSDXSQXLDXKAQXAFIEXLIEGGPSSGAPPPSGSEE
modifications: Aib, 4Pal, αMeL, Orn, Me4Pal, αMeY; acylated Lys; C-terminal amide; synthetic construct; SITE 2: note = 2-Aminoisobutyric Acid; SITE 10: note = 3-(4-Pyridyl)-L-alanine; SITE 13: note = alpha-methyl-leucine; SITE 16: note = L-ornithine; SITE 17: note = Lysine is chemically modified through conjugation of the epsilon-amino group of the Lysine side chain with D-Glutami
B10: Example 1066 (peptide)
chain: YXQGTFTSDXSXXLDXKAQXAFIEXLLEGGPSSGAPPPSGSEE
modifications: non-natural residues, Glu-γGlu-C18 diacid acylation, C-terminal amide; synthetic construct; SITE 2: note = 2-Aminoisobutyric Acid; SITE 10: note = 3-(4-Pyridyl)-L-alanine; SITE 12: note = L-ornithine; SITE 13: note = alpha-methyl-leucine; SITE 16: note = L-ornithine; SITE 17: note = Lysine is chemically modified through conjugation of the epsilon-amino group of the Lys
B11: Example 1061 (peptide)
chain: YXQGTFTSDXSXXLDXKAQXAFIEYLIAGGPSSGAPPPSGSEE
modifications: non-natural residues, C-terminal amide, acylated Lys with fatty diacid; synthetic construct; SITE 2: note = 2-Aminoisobutyric Acid; SITE 10: note = 3-(4-Pyridyl)-L-alanine; SITE 12: note = …; SITE 13: note = alpha-methyl-leucine; SITE 16: note = L-ornithine; SITE 17: note = Lysine is chemically modified through conjugation of the epsilon-amino group of the Lys

Legend:
Assay in all cases: cell-based or functional assay
[1] = target: T1, human GIP receptor (human)
[2] = target: human glucagon receptor (human) (UniProt P47871)
hGLP-1R = hGLP-1R (Homo sapiens, UniProt P43220)
Chain of hGLP-1R (P43220 24-463): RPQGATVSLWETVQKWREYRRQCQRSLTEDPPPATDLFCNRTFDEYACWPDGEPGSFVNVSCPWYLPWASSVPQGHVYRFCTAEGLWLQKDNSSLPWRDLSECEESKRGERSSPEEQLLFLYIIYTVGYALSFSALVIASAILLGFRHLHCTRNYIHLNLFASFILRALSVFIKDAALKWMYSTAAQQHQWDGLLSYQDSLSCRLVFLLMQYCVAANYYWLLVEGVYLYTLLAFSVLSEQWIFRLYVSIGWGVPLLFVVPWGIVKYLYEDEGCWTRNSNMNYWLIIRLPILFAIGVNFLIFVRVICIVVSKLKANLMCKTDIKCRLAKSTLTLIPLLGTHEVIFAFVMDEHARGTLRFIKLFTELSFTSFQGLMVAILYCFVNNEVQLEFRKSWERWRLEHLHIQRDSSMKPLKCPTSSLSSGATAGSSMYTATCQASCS

Chain of human glucagon receptor (human) (P47871 26-477): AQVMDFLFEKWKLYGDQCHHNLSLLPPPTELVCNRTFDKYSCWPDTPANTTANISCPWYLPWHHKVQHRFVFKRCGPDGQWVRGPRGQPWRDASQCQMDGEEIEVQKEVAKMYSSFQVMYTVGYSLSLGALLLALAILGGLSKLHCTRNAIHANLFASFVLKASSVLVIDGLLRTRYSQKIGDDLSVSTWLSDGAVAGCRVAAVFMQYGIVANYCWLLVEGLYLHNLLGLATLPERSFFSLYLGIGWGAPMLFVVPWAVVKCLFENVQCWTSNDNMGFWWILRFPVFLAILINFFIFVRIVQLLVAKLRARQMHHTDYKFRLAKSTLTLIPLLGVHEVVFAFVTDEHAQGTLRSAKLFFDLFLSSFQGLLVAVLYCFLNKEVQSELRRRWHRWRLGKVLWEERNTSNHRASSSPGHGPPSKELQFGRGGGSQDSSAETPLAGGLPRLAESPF

Row | Binder | Relative cAMP EC50 [1] [nM] | cAMP Rel EC50 (1% HSA) [1] [nM] | Relative cAMP EC50 [2] [nM] | cAMP Rel EC50 (1% HSA) [2] [nM] | Relative cAMP EC50 (hGLP-1R) [nM] | cAMP Rel EC50 (1% HSA) (hGLP-1R) [nM]
1 | B1 | 0.123 | 19.3 | 10.4 | 3470 | 6.2 | 
2 | B2 | 0.0929 | 29.6 | 3.98 | 1650 | 4.25 | 
3 | B3 | 0.223 | 44.7 | 9.08 | 4900 | 2.85 | 
4 | B4 | 0.293 | 39.1 | 19.7 | 3080 | 11.6 | 2290
5 | B5 | 0.556 | 62.5 | 13.7 | 1940 | 7.89 | 912
6 | B6 | 0.471 | 86.4 | 12.6 | 1860 | 17.6 | 2610
7 | B7 | 0.468 | 48.9 | 7.52 | 748 | 4.61 | 
8 | B8 | 0.128 | 25.9 | 5.29 | 2780 | 5.16 | 
9 | B9 | 0.167 | 27.3 | 20.2 | 1940 | 1.54 | 321
10 | B10 | 0.446 | 69.9 | 25.4 | 4260 | 9.8 | 1850
11 | B11 | 0.656 | 55.6 | 17.3 | 2910 | 4.56 | 
